Target: human asialo-haptoglobin, phenotype 1-1 (Hp heterotetramer of two α1 and two β-subunits) (human) (UniProt P00738)
Experiment: native MS

stoichiometry N (Hb heterodimers per Hp heterotetramer): 2
Substance: human hemoglobin holo-heterodimer (αHb and βHb) (from UniProt P69905 1-142; P68871 1-147) (complex)
